B1: EHEE_rd2_0601 (parent)
chain: TYTYKLTDEEASRRAEDEWRNRGYDVRVRNNNGTWEVEVR

Variants of: B1
Experiment: folding stability dG (cDNA display proteolysis); higher = more stable
Details: PBS, room temperature

Variant	folding stability dG
TYTYKLTDEEASRRAEDEWRNRGYDVRVHNNNGTWEVEVR	1.49 kcal/mol
TYTYKLTDEEASRRAEDEWRNRGYDVRVVNNNGTWEVEVR	1.67 kcal/mol
TYTYKLTDEEASRRAEDEWRNRGYDVRVDNNNGTWEVEVR	0.413 kcal/mol
TYTYKLTDEEASRRAEDEWRNRGYDVRVWNNNGTWEVEVR	1.56 kcal/mol
TYTYKLTDEEASRRAEDEWRNRGYDVRVNNNNGTWEVEVR	1.17 kcal/mol
TYTYKLTDEEASRRAEDEWRNRGYDVRVRNVNGTWEVEVR	1.83 kcal/mol
TYTYKLTDEEASRRAEDEWRNRGYDVRVRNRNGTWEVEVR	1.34 kcal/mol
TYTYKLTDEEASRRAEDEWRNRGYDVRVRNTNGTWEVEVR	1.21 kcal/mol
TYTYKLTDEEASRRAEDEWRNRGYDVRVRNWNGTWEVEVR	1.02 kcal/mol
TYTYKLTDEEASRRAEDEWRNRGYDVRVRNENGTWEVEVR	1.12 kcal/mol
TYTYKLTDEEASRRAEDEWRNRGYDVRVRNANGTWEVEVR	0.996 kcal/mol
TYTYKLTDEEASRRAEDEWRNRGYDVRVRNINGTWEVEVR	1.76 kcal/mol
TYTYKLTDEEASRRAEDEWRNRGYDVRVRNMNGTWEVEVR	1.31 kcal/mol
TYTYKLTDEEASRRAEDEWRNRGYDVRVRNYNGTWEVEVR	1.4 kcal/mol
TYTYKLTDEEASRRAEDEWRNRGYDVRVRNSNGTWEVEVR	1.1 kcal/mol
TYTYKLTDEEASRRAEDEWRNRGYDVRVRNPNGTWEVEVR	-0.345 kcal/mol
TYTYKLTDEEASRRAEDEWRNRGYDVRVRNHNGTWEVEVR	1.32 kcal/mol
TYTYKLTDEEASRRAEDEWRNRGYDVRVRNQNGTWEVEVR	1.08 kcal/mol
TYTYKLTDEEASRRAEDEWRNRGYDVRVRNKNGTWEVEVR	1.16 kcal/mol
TYTYKLTDEEASRRAEDEWRNRGYDVRVRNLNGTWEVEVR	1.51 kcal/mol
TYTYKLTDEEASRRAEDEWRNRGYDVRVRNDNGTWEVEVR	1.06 kcal/mol

Variant	folding stability dG
TYTYKLTDEEASRRAEDEWRNRGYDVRVRNFNGTWEVEVR	1.42 kcal/mol
TYTYKLTDEEASRRAEDEWRNRGYDVRVRNGNGTWEVEVR	0.546 kcal/mol
TYTYKLTDEEASRRAEDEWRNRGYRVRVRNNNGTWEVEVR	1.23 kcal/mol
TYTYKLTDEEASRRAEDEWRNRGYEVRVRNNNGTWEVEVR	1.82 kcal/mol
TYTYKLTDEEASRRAEDEWRNRGYWVRVRNNNGTWEVEVR	1.53 kcal/mol
TYTYKLTDEEASRRAEDEWRNRGYFVRVRNNNGTWEVEVR	1.35 kcal/mol
TYTYKLTDEEASRRAEDEWRNRGYGVRVRNNNGTWEVEVR	0.602 kcal/mol
TYTYKLTDEEASRRAEDEWRNRGYYVRVRNNNGTWEVEVR	1.27 kcal/mol
TYTYKLTDEEASRRAEDEWRNRGYIVRVRNNNGTWEVEVR	1.76 kcal/mol
TYTYKLTDEEASRRAEDEWRNRGYQVRVRNNNGTWEVEVR	1.64 kcal/mol
TYTYKLTDEEASRRAEDEWRNRGYMVRVRNNNGTWEVEVR	1.36 kcal/mol
TYTYKLTDEEASRRAEDEWRNRGYKVRVRNNNGTWEVEVR	1.16 kcal/mol
TYTYKLTDEEASRRAEDEWRNRGYLVRVRNNNGTWEVEVR	1.48 kcal/mol
TYTYKLTDEEASRRAEDEWRNRGYHVRVRNNNGTWEVEVR	1.56 kcal/mol
TYTYKLTDEEASRRAEDEWRNRGYAVRVRNNNGTWEVEVR	1.25 kcal/mol
TYTYKLTDEEASRRAEDEWRNRGYNVRVRNNNGTWEVEVR	1.3 kcal/mol
TYTYKLTDEEASRRAEDEWRNRGYSVRVRNNNGTWEVEVR	1.3 kcal/mol
TYTYKLTDEEASRRAEDEWRNRGYPVRVRNNNGTWEVEVR	0.219 kcal/mol
TYTYKLTDEEASRRAEDEWRNRGYVVRVRNNNGTWEVEVR	1.52 kcal/mol
TYTYKLTDEEASRRAEDEWRNRGYTVRVRNNNGTWEVEVR	1.46 kcal/mol
TYTYKLTDEEASRRAEDEWRNRGYDVRFRNNNGTWEVEVR	0.162 kcal/mol

Variant	folding stability dG
TYTYKLTDEEASRRAEDEWRNRGYDVRRRNNNGTWEVEVR	1.38 kcal/mol
TYTYKLTDEEASRRAEDEWRNRGYDVRCRNNNGTWEVEVR	0.766 kcal/mol
TYTYKLTDEEASRRAEDEWRNRGYDVRNRNNNGTWEVEVR	-0.678 kcal/mol
TYTYKLTDEEASRRAEDEWRNRGYDVRGRNNNGTWEVEVR	-0.651 kcal/mol
TYTYKLTDEEASRRAEDEWRNRGYDVRSRNNNGTWEVEVR	0.536 kcal/mol
TYTYKLTDEEASRRAEDEWRNRGYDVRARNNNGTWEVEVR	0.322 kcal/mol
TYTYKLTDEEASRRAEDEWRNRGYDVRDRNNNGTWEVEVR	-0.612 kcal/mol
TYTYKLTDEEASRRAEDEWRNRGYDVRIRNNNGTWEVEVR	1.44 kcal/mol
TYTYKLTDEEASRRAEDEWRNRGYDVRYRNNNGTWEVEVR	0.207 kcal/mol
TYTYKLTDEEASRRAEDEWRNRGYDVRKRNNNGTWEVEVR	-0.078 kcal/mol
TYTYKLTDEEASRRAEDEWRNRGYDVRMRNNNGTWEVEVR	0.531 kcal/mol
TYTYKLTDEEASRRAEDEWRNRGYDVRTRNNNGTWEVEVR	0.683 kcal/mol
TYTYKLTDEEASRRAEDEWRNRGYDVRLRNNNGTWEVEVR	0.62 kcal/mol
TYTYKLTDEEASRRAEDEWRNRGYDVRHRNNNGTWEVEVR	-0.199 kcal/mol
TYTYKLTDEEASRRAEDEWRNRGYDVRWRNNNGTWEVEVR	0.13 kcal/mol
TYTYKLTDEEASRRAEDEWRNRGYDVRQRNNNGTWEVEVR	-0.695 kcal/mol
TYTYKLTDEEASRRAEDEWRNRGYDPRVRNNNGTWEVEVR	-0.384 kcal/mol
TYTYKLTDEEASRRAEDEWRNRGYDARVRNNNGTWEVEVR	0.393 kcal/mol
TYTYKLTDEEASRRAEDEWRNRGYDTRVRNNNGTWEVEVR	0.439 kcal/mol
TYTYKLTDEEASRRAEDEWRNRGYDFRVRNNNGTWEVEVR	-0.688 kcal/mol
TYTYKLTDEEASRRAEDEWRNRGYDIRVRNNNGTWEVEVR	0.319 kcal/mol

— the MegaScale stability set (Tsuboyama et al. 2023)
